B1: MomFad2: Momordica charantia fatty acid modifying enzyme associated with conjugated double bond formation, SEQ ID NO:4, cDNA SEQ ID NO:3 (protein, listed as Momordica charantia)
chain: MGGRGAIGVLRNGGGPKKKMGPGQGLGPGERITHARPPFSISQIKKAIPPHCFQRSLRRSFSYLLSDIALVSAFYYVADTYFHRLPHPLLHYLAWPVYWFCQGAVLTGMWGIAHDCGHHAFSDYQLVDDVVGFLIHSLVFVPYFSFKISHRRHHSNTSSVDRDEVFVPKPKAKMPWYFKYLTNPPARVFIIFITLTLGWPMYLTFNISGRYYGRFTSHFDPNSPIFSPKERVLVHISNAGLVATGYLLYRIAMAKGVGWLIRLYGVPLIVLNACVVLITALQHTHPSFPYYDSTEWDWLRGNLVTVDRDYGPIMNRVFHHITDTHVVHHLFPSMPHYNGKEATVAAKRILGEYYQFDGTPIWKAAWREFRECVYVEPDEDDGATSGSSSKGVFWYHNKL
B2: ImpFad2: Impatiens balsamina fatty acid modifying enzyme associated with conjugated double bond formation, SEQ ID NO:2, cDNA SEQ ID NO:1 (protein, listed as Impatiens balsamina)
chain: MGEVGPTNRTKTKLDKQQESENRVPHEPPPFTLSDLKKAIPPHCFERSLVKSFYHVIHDIIILSFFYYVAANYIPMLPQNLRYVAWPIYWAIQGCVQLGILVLGHECGHHAFSDYQWVDDMVGFVLHSSQLIPYFSWKHSHRRHHSNTASIERDEVYPPAYKNDLPWFAKYLRNPVGRFLMIFGALLFGWPSYLLFNANGRLYDRFASHYDPQSPIFNNRERLQVIASDVGLVFAYFVLYKIALAKGFVWLICVYGVPYVILNGLIVLITFLQHTHPNLPRYDLSEWDWLRGALSTVDRDYGMLNKVFHNVTDTHLVHHLFTTMPHYRAKEATEVIKPILGDYYKFDDTPFLKALWKDMGKCIYVESDVPGKNKGVYWYNNDI

How the values were obtained:
[1] = system: Tobacco (Nicotiana tabacum L. cv Xanthi) callus; assay: Fatty acid analysis (GC, GC-MS) of transgenic tobacco callus expressing the cDNA; type: cell-based; details: CaMV 35S promoter
Text: The cDNAs encoding fatty acid modifying enzymes associated with conjugated double bond synthesis in seeds of Impatiens balsamina and Momordica charantia were introduced into a plant expression vector designated pML63. Vector pML63 contains the uidA gene (which encodes the GUS enzyme) operably linked to the CaMV35S promoter and 3′ NOS sequence. pML63 is modified from pMH40 to produce a minimal 3′ NOS terminator fragment. pMH 40 is described in WO 98/16650 which was published on Apr. 23, 1998, the disclosure of which are hereby incorporated by reference. Using standard techniques familiar to those skilled in the art, the 770 base pair terminator sequence contained in pMH40 was replaced with a new 3′ NOS terminator sequence comprising nucleotides 1277 to 1556 of the sequence published by Depicker et al. (1982, J. Appl. Genet. 1:561–574). A chimeric gene was constructed comprising cDNAs encoding fatty acid modifying enzymes associated with conjugated double bond synthesis in seeds of Impatiens balsamina and Momordica charantia in sense orientation with respect to the cauliflower mosaic virus 35S promoter that is located 5′ to the cDNA fragment and termination sequences from the nopaline synthase (NOS) that are located 3′ to the cDNA fragment. The cDNAs for the Impatiens polypeptide was introduced in the NcoI and EcoRI sites of the vector pML63. The cDNA for the Momordica polypeptide was introduced into the NcoI and SmaI sites of the vector pML63. The NcoI and EcoRI sites flanking the Impatiens cDNA were generated by PCR amplification of the cDNAs using oligonucleotide primers that contained these restriction sites (SEQ ID NO:7 and SEQ ID NO:8, for the sense and antisense oligonucleotides, respectively). PCR amplification was conducted using the Pfu DNA polymerase. The NcoI site flanking the 5′ end of the Momordica cDNA was generated by PCR amplification in a similar manner (SEQ ID NO:9 and SEQ ID NO:10). The 3′ end of the PCR-generated Momordica cDNA was blunt-ended which allowed for cloning into the SmaI site of the vector pML63. The resulting fusions of the cauliflower mosaic virus 35S promoter with the cDNAs encoding fatty acid modifying enzymes associated with conjugated double bond synthesis in seeds of Impatiens balsamina or Momordica charantia and NOS termination sequences were released from the vector pML63 by digestion with XbaI. The resulting XbaI fragment was ligated into the corresponding site of the binary vector pZS199 The vector pZS199 contains the following elements: (1) the chimeric gene nopaline synthase/neomycin phosphotransferase as a selectable marker for transformed plant cells (Brevan et al. (1984) Nature 304:184–186), (2) the left and right borders of the T-DNA of the Ti plasmid (Brevan et al. (1984) Nucl. Acids Res. 12:8711–8720), (3) the E. coli lacZ-complementing segment (Vieria and Messing (1982) Gene 19:259–267) with unique restriction endonuclease sites for EcoRI, KpnI, BamHI, XbaI and SalI, (4) the bacterial replication origin from the Pseudomonas plasmid pVS1 (Itoh et al. (1984) Plasmid 11:206–220), and (5) the bacterial neomycin phosphotransferase gene from Tn5 (Berg et al. (1975) Proc. Natl. Acad. Sci. U.S.A. 72:3628–3632) as a selectable marker for transformed A. tumefaciens. The nopaline synthase promoter in the plant selectable marker was replaced by the 35S promoter (Odell et al. (1985) Nature, 313:810–813) by a standard restriction endonuclease digestion and ligation strategy.
Gene fusions of the Impatiens balsamina or Momordica charantia cDNAs with the cauliflower mosaic virus 35S promoter and the NOS termination sequences in vector pZS199 were introduced into Agrobacterium tumefaciens strain LBA4404. […]

soybean embryos = assay: Fatty acid composition of transgenic soybean somatic embryos (GC, GC-MS); type: cell-based; details: for 16:0 / 18:0 / 18:1 / 18:2 / 18:3 / α-Parinaric / Eleostearic / Other: single soybean embryo; for 16:0 / 18:0 / 18:1 / 18:2 / 18:3 / α-Parinaric: % of total oil weight; for Eleostearic: includes cis-trans isomers of α-eleostearic acid (<1.0 wt %); for Other: primarily 20:0, 20:1, 22:0, and 22:1
Protocol: Gene fusions of the Impatiens balsamina or Momordica charantia cDNAs with the conglycinin promoter and phaseolin termination sequences in vector pKS67 were introduced into soybean embryos using the particle bombardment method of transformation. To induce somatic embryos, cotyledons, 3–5 mm in length dissected from surface sterilized, immature seeds of a soybean cultivar A2872 or JACK-910 were cultured in the light or dark at 26° C. on an appropriate agar medium for 6–10 weeks. Somatic embryos that produce secondary embryos were then excised and placed into a suitable liquid medium. After repeated selection for clusters of somatic embryos that multiplied as early, globular staged embryos, the suspensions were maintained as described below.
Soybean embryogenic suspension cultures were then transformed with the vector pKS67 containing the Impatiens or Momordica cDNA for fatty acid modifying enzymes associated with conjugated double synthesis by the method of particle gun bombardment (Klein et al. (1987) Nature (London) 327:70, U.S. Pat. No. 4,945,050). A DuPont Biolistic™ PDS1000/HE instrument (helium retrofit) was used for these transformations.
Five to seven days post bombardment, the liquid media was exchanged with fresh media, and eleven to twelve days post bombardment with fresh media containing […] hygromycin. This selective media was refreshed weekly. Seven to eight weeks post bombardment, green, transformed tissue was observed growing from untransformed, necrotic embryogenic clusters. Isolated green tissue was removed and inoculated into individual flasks to generate new, clonally propagated, transformed embryogenic suspension cultures. Each new line was treated as an independent transformation event. These suspensions were then subcultured and maintained as clusters of immature embryos.
Transgenic soybean embryos selected and maintained in this manner were analyzed for eleostearic acid and parinaric acid content using methods described in Example 4 (Table 1). Individual embryos expressing either the Impatiens or Momordica fatty acid modifying enzyme for conjugated double bond synthesis were homogenized in 1% (w/v) sodium methoxide in methanol. Fatty acid methyl esters resulting from this transesterification step were analyzed by both GC and GC-MS as described in Example 4. Methyl esters of eleostearic and parinaric acids were identified in transgenic soybean extracts by comparison of retention times and mass spectra with those of fatty acid methyl esters prepared from seeds of Impatiens balsamina and Momordica charantia. […] In soybean embryos expressing the Momordica enzyme, eleostearic acid was detected principally as α-eleostearic acid with lesser amounts of at least two other cis-trans isomers of eleostearic acid. […]

[2] = soybean embryos, β-conglycinin promoter, highest amount

Molecule | eleostearic acid accumulated, relative to total fatty acid [1] | parinaric acid accumulated, relative to total fatty acid [1] | 16:0 (soybean embryos; independent transgenic line 1) | 18:0 (soybean embryos; independent transgenic line 1) | 18:1 (soybean embryos; independent transgenic line 1) | 18:2 (soybean embryos; independent transgenic line 1) | 18:3 (soybean embryos; independent transgenic line 1) | α-Parinaric (soybean embryos; independent transgenic line 1) | 16:0 (soybean embryos; independent transgenic line 2) | 18:0 (soybean embryos; independent transgenic line 2) | 18:1 (soybean embryos; independent transgenic line 2) | 18:2 (soybean embryos; independent transgenic line 2) | 18:3 (soybean embryos; independent transgenic line 2) | α-Parinaric (soybean embryos; independent transgenic line 2) | 16:0 (soybean embryos; independent transgenic line 3) | 18:0 (soybean embryos; independent transgenic line 3) | 18:1 (soybean embryos; independent transgenic line 3) | 18:2 (soybean embryos; independent transgenic line 3) | 18:3 (soybean embryos; independent transgenic line 3) | α-Parinaric (soybean embryos; independent transgenic line 3) | other results
B1 | 1.7% | 1.1% | 6.9 Weight % | 2.4 Weight % | 43.1 Weight % | 24.1 Weight % | 3.1 Weight % | 1.0 Weight % | 7.9 Weight % | 2.1 Weight % | 36.8 Weight % | 29.4 Weight % | 5.1 Weight % | 1.0 Weight % | 8.4 Weight % | 2.3 Weight % | 41.9 Weight % | 25.1 Weight % | 6.1 Weight % | 1.8 Weight % | Eleostearic (soybean embryos; transgenic line 1): 17.4 Weight %; Other (soybean embryos; transgenic line 1): <2.0 Weight %; Eleostearic (soybean embryos; transgenic line 2): 15.9 Weight %; Other (soybean embryos; transgenic line 2): <2.0 Weight %; Eleostearic (soybean embryos; transgenic line 3): 12.4 Weight %; Other (soybean embryos; transgenic line 3): <2.0 Weight %; eleostearic acid of the total fatty acids (soybean embryos; [2]): ≤ 16.5%; α-parinaric acid of the total fatty acids (soybean embryos; [2]): ≤ 1.5%
B2 | 3.4% | 1.7% | 13.3 Weight % | 4.2 Weight % | 20.8 Weight % | 46.3 Weight % | 9.2 Weight % | 2.2 Weight % | 13.2 Weight % | 2.5 Weight % | 12.2 Weight % | 53.8 Weight % | 12.5 Weight % | 2.0 Weight % | 13.5 Weight % | 3.1 Weight % | 11.1 Weight % | 53.0 Weight % | 17.3 Weight % | 1.0 Weight % | Eleostearic (soybean embryos; transgenic line 1): 3.0 Weight %; Other (soybean embryos; transgenic line 1): <1.0 Weight %; Eleostearic (soybean embryos; transgenic line 2): 2.8 Weight %; Other (soybean embryos; transgenic line 2): <1.0 Weight %; Eleostearic (soybean embryos; transgenic line 3): 0.6 Weight %; Other (soybean embryos; transgenic line 3): <1.0 Weight %; α-eleostearic acid of the total fatty acids (soybean embryos; [2]): ≤ 3%; α-parinaric acid of the total fatty acids (soybean embryos; [2]): ≤ 2%

— patent publication US7244563B2, “Genes for plant fatty acid modifying enzymes associated with conjugated double bond formation” (E. I. du Pont de Nemours and Company, priority 2002, dated 2007)
